The values below come from article PMC5993293.

Test [1] addresses GST-TA3mut (functionally impaired TA3 mutant, aa 361-370 replaced by alanines, fused to GST) (mouse) (UniProt Q04207). Put plainly: affinity purification with mass spectrometry; SILAC; GST baits (GST-TA3, GST-TA3mut) immobilised; nuclear extracts of TNF-α-treated HeLa S3 cells or of 3T3 fibroblasts, 4 hours at 4°C; wash 20 mM Hepes pH 7.6, 1 mM EDTA, 10% glycerol, 0.1% NP40, 100 mM KCl; elution with 0.2% sarkosyl; label swap, four biological replicates.
Sequence of UniProt Q04207 (Q04207 other isoform, or with tags, fused parts or gaps, change not shown): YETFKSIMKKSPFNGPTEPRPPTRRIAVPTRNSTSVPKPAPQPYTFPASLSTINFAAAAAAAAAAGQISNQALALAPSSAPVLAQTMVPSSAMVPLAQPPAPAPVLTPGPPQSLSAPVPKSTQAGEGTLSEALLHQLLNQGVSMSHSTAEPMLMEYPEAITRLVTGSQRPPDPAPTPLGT

The target is the same in test [2]. Put plainly: pull-down; GST alone, GST-TA3 or GST-TA3mut as baits; transfected HEK-293 cells overexpressing tagged Zbtb7a; Zbtb7a detected by immunoblotting.

Turning to “Zbtb7a, endogenous in nuclear extracts of TNF-α-stimulated human HeLa S3 cells (from UniProt O95365 1-584) (natural protein)”, the fold reduction of binding against unmutated TA3 in test [1] was 5 to 7 times.
In test [2], “tagged Zbtb7a overexpressed in transfected HEK-293 cells (from UniProt O88939 1-569) (natural protein)” registered a fold reduction of binding against unmutated TA3 of 2 times.
